In IntAct's records for PubMed 31515488:

B1: Golgin-45 (Homo sapiens), Q9H2G9 (parent)
chain: MTTKNLETKVTVTSSPIRGAGDGMETEEPPKSVEVTSGVQSRKHHSLQSPWKKAVPSESPGVLQLGKMLTEKAMEVKAVRILVPKAAITHDIPNKNTKVKSLGHHKGEFLGQSEGVIEPNKELSEVKNVLEKLKNSERRLLQDKEGLSNQLRVQTEVNRELKKLLVASVGDDLQYHFERLAREKNQLILENEALGRNTAQLSEQLERMSIQCDVWRSKFLASRVMADELTNSRAALQRQNRDAHGAIQDLLSEREQFRQEMIATQKLLEELLVSLQWGREQTYSPSVQPHSTAELALTNHKLAKAVNSHLLGNVGINNQKKIPSTVEFCSTPAEKMAETVLRILDPVTCKESSPDNPFFESSPTTLLATKKNIGRFHPYTRYENITFNCCNHCRGELIAL
partner: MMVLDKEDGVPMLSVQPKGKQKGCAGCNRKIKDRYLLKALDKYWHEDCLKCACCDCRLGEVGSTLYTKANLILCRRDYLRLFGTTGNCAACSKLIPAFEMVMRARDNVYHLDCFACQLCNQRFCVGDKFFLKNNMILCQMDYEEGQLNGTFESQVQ
B2: Glycolipid transfer protein (Homo sapiens), Q9NZD2 (parent)
chain: MALLAEHLLKPLPADKQIETGPFLEAVSHLPPFFDCLGSPVFTPIKADISGNITKIKAVYDTNPAKFRTLQNILEVEKEMYGAEWPKVGATLALMWLKRGLRFIQVFLQSICDGERDENHPNLIRVNATKAYEMALKKYHGWIVQKIFQAALYAAPYKSDFLKALSKGQNVTEEECLEKIRLFLVNYTATIDVIYEMYTQMNAELNYKV
partner: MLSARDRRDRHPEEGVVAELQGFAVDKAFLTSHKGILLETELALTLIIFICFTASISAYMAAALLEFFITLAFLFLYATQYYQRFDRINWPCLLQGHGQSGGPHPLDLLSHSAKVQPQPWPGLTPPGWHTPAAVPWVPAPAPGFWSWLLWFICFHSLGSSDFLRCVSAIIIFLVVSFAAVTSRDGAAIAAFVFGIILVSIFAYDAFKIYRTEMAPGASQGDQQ
B3: Origin recognition complex subunit 6 (Homo sapiens), Q9Y5N6 (parent)
chain: MGSELIGRLAPRLGLAEPDMLRKAEEYLRLSRVKCVGLSARTTETSSAVMCLDLAASWMKCPLDRAYLIKLSGLNKETYQSCLKSFECLLGLNSNIGIRDLAVQFSCIEAVNMASKILKSYESSLPQTQQVDLDLSRPLFTSAALLSACKILKLKVDKNKMVATSGVKKAIFDRLCKQLEKIGQQVDREPGDVATPPRKRKKIVVEAPAKEMEKVEEMPHKPQKDEDLTQDYEEWKRKILENAASAQKATAE
partner: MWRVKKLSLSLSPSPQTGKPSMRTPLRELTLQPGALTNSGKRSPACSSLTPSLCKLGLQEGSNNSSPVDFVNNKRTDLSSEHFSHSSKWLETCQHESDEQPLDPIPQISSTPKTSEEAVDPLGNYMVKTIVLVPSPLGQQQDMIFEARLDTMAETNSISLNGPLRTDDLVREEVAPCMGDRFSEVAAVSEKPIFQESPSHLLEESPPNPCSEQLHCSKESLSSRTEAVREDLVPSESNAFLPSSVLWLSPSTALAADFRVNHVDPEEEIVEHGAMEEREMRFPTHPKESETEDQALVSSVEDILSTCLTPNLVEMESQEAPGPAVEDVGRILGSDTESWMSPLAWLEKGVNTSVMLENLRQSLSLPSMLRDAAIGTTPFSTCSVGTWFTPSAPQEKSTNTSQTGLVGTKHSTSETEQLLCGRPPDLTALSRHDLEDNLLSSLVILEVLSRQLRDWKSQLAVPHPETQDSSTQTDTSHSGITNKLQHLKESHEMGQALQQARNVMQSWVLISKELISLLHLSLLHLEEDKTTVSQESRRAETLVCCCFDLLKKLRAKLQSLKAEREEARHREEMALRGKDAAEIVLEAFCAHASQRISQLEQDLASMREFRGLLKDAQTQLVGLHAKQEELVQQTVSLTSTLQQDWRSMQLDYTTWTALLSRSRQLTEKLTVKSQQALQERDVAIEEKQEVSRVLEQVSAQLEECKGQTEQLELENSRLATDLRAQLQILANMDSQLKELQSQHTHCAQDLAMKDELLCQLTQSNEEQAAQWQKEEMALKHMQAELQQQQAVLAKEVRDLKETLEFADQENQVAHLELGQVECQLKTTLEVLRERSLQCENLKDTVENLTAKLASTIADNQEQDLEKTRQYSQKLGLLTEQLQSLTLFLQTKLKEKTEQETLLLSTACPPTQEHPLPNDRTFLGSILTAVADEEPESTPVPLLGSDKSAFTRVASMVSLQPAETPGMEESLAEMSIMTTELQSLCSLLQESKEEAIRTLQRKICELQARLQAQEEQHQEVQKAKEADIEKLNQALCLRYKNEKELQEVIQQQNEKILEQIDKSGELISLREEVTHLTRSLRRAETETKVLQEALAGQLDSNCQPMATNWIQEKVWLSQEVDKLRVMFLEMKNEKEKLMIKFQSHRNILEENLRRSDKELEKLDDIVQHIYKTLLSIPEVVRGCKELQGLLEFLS
B4: Protein DBF4 homolog B (Homo sapiens), Q8NFT6 (parent)
chain: MSEPGKGDDCLELESSMAESRLRAPDLGVSRCLGKCQKNSPGARKHPFSGKSFYLDLPAGKNLQFLTGAIQQLGGVIEGFLSKEVSYIVSSRREVKAESSGKSHRGCPSPSPSEVRVETSAMVDPKGSHPRPSRKPVDSVPLSRGKELLQKAIRNQGSISGGGSGGSSSLLTNARSWGVRILHVDEMMMHVQQLSLASLCVKKQQPKKPEGTCPAAESRTRKVARLKAPFLKIEDESRKFRPFHHQFKSFPEISFLGPKDASPFEAPTTLGSMHHTRESKDGEPSPRSAAHTMPRRKKGYCECCQEAFEELHVHLQSAQHRSFALEAHLYAEVDRIIAQLSHSFADIPFQAGLPRWSGSPASDCDPLCPETLHPHQPSHPRAASPRIRKEDSCQASVTQGRAAGQQRWTESLDGVMGPPASHTCVSATTLLPALPKGSREQGCLCPCPASFTQSHLVTSLALLPGEWSPAEDMPLHPSQENSFAPADIPVKGPLLFPEARPWLMSARCWVRPFPFVTWGCLIPHDTTPLHEEVSPCPCLRLGYLYLLLTQSLWCRVRVPSLSTAGPIPRTSHPCTLAFPSYLNDHDLGHLCQAKPQGWNTPQPFLHCGFLAVDSG
partner: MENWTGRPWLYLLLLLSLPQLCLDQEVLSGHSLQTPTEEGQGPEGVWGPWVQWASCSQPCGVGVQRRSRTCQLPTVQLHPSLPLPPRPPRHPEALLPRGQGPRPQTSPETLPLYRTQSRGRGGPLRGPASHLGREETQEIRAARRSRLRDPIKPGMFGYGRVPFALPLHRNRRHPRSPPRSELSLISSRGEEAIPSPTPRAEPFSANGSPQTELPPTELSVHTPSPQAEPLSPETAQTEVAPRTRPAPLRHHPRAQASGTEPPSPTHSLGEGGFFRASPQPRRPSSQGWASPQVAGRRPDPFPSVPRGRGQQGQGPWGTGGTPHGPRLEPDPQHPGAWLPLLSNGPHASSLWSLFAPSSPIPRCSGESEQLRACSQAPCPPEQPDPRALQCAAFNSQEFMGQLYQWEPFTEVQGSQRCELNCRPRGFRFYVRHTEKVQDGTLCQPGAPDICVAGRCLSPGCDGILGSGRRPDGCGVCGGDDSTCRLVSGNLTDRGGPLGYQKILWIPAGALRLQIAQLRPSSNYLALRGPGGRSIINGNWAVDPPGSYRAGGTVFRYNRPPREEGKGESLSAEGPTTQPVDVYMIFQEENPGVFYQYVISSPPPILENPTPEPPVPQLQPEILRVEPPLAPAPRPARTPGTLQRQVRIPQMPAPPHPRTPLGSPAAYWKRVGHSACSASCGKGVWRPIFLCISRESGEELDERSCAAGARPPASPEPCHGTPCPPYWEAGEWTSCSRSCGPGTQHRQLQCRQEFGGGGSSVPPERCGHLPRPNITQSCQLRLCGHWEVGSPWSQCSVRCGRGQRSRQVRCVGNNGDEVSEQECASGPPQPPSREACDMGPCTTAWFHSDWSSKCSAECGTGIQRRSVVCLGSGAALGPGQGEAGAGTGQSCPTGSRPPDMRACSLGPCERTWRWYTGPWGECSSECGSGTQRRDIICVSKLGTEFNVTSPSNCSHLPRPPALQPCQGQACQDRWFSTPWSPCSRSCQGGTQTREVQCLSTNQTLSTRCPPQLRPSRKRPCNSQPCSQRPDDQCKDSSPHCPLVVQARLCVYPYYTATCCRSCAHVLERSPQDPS

Variants of: B1
Settings: with rbtn1_human LMO1, P25800

Variant	effect of a mutation on the interaction
Q40R	with no effect
H45R	with no effect

Variants of: B2
Settings: with cklf5_human CMTM5, Q96DZ9

Variant	effect of a mutation on the interaction
R116Q	with no effect
R68Q	with no effect

Variants of: B3
Settings: with spag5_human SPAG5, Q96R06

Variant	effect of a mutation on the interaction
K201N	with no effect

Variants of: B4
Settings: with atl4_human ADAMTSL4, Q6UY14

Variant	effect of a mutation on the interaction
L199S	with no effect
